Data published in the RNAGym collection of RNA variant scans (doi:10.7554/elife.90254).

B1: LINE1-full (parent)
chain: UACGUAGGUGGUUUUCCCCUGAUAGUGCUAAGGGGGCCUGGAAGUUUGGACUGGGCAGAGCUCAACACAGCGUGGCAAAGUGGCUGUGGCUAGACUGCCUCUCUGGAUUCCUCGUCACUCAGCAGGGCAUCUCUGAGAGAAAUGCC

Variants of: B1
Test: self-cleavage, relative activity (ratio to wild type); higher = more cleavage; in vitro, sequencing; the parent is a self-cleaving ribozyme

Variant	self-cleavage
U20G U132C	1.4
U20G U134C	0.64
G21A	1.14
G21A A57C	0.09
G21A A57U	0.02
G21A A59U	0.57
G21A A65C	0.02
G21A A67C	0.02
G21A A124G	0.9
G21A A141G	1.16
G21A C38A	1.07
G21A C118U	1.07
G21A C120A	1.11
G21A C145U	0.32
G21A G114A	2.07
G21A G135A	1.22
G21A G137A	1.21
G21A U52A	1.76
G21A U62C	0.05
G21A U73C	1.41
G21A U91A	0.37
G21A U100C	1.72
G21A U102C	1.79
G21A U115C	2.12

Variant	self-cleavage
G21A U115G	0.96
G21A U119C	1.25
G21A U132C	1.63
G21C	0.69
G21C U47A	0.91
G21C U109C	1.18
G21C U132C	1.27
G21U	1.1
G21U A42G	0.8
G21U A42U	1.03
G21U A79G	1.32
G21U A92G	0.1
G21U A94U	0.39
G21U A136G	1.84
G21U C56G	0.02
G21U C131U	1.41
G21U G35A	1.36
G21U G127A	1.99
G21U U45C	1.44
G21U U47C	0.72
G21U U73C	2.04
G21U U81C	1.01
G21U U134A	1.27
A22C A30G	1.18

Variant	self-cleavage
A22C A42G	1.86
A22C A50U	1.02
A22C A124G	1.92
A22C A129G	1.39
A22C U39C	2.06
A22C U46A	2.21
A22C U81C	1.04
A22C U96C	0.26
A22C U102C	1.55
A22C U115A	1.46
A22C U143C	1.41
A22G A30G	0.86
A22G A30U	0.58
A22G A43U	0.88
A22G A50G	0.97
A22G A57G	0.67
A22G A57U	0.2
A22G A59G	0.16
A22G A64G	0.34
A22G A64U	0.41
A22G A65G	0.08
A22G A67G	0.63
A22G A67U	0.23
A22G A69G	0.59

Variant	self-cleavage
A22G A69U	0.14
A22G A78G	0.94
A22G A78U	1.85
A22G A79U	1.51
A22G A92G	0.2
A22G A92U	0.79
A22G A107U	0
A22G A117G	0.97
A22G A117U	1.29
A22G A124C	1.49
A22G A124G	0.96
A22G A124U	0.8
A22G A129C	0.27
A22G A136C	1.49
A22G A136G	1.17
A22G A136U	0.87
A22G A142U	0.92
A22G C37G	0.79
A22G C38U	1.95
A22G C51A	0.4
A22G C63A	0.05
A22G C68U	0.98
A22G C76G	2.86
A22G C84U	0.24

Variant	self-cleavage
A22G C90U	0.04
A22G C95U	0.53
A22G C98U	0.64
A22G C101A	1.47
A22G C110U	0.92
A22G C113G	0.82
A22G C113U	0.92
A22G C123U	0.99
A22G C128U	1.26
A22G C131G	1.8
A22G C131U	1.03
A22G C145U	0.97
A22G G27A	1
A22G G32A	0.57
A22G G32U	0.6
A22G G33A	0.65
A22G G34U	1.66
A22G G36C	0.37
A22G G48U	1.05
A22G G53A	1.09
A22G G70A	0.18
A22G G80A	2.37
A22G G83U	0.58
A22G G88A	0.14

Variant	self-cleavage
A22G G106U	0.73
A22G G125A	1.9
A22G G126A	1.74
A22G G137A	1.52
A22G U26A	1.4
A22G U26C	0.83
A22G U26G	0.75
A22G U29A	1.24
A22G U45C	1.33
A22G U46A	0.95
A22G U47A	1.15
A22G U52A	1.21
A22G U73C	1.37
A22G U73G	1.49
A22G U81C	1.18
A22G U81G	1.03
A22G U85C	0.27
A22G U85G	0.45
A22G U87A	0.22
A22G U87C	0.28
A22G U96C	0.2
A22G U100G	1.75
A22G U108C	1.16
A22G U109A	1.13

Variant	self-cleavage
A22G U112A	1.84
A22G U112C	1.25
A22G U115G	1.23
A22G U119A	2.19
A22G U119C	1.43
A22G U130A	1.52
A22G U130C	1.3
A22G U132A	0.48
A22G U132C	1.11
A22U A43U	1.43
A22U A50G	1.01
A22U A57G	0.84
A22U A57U	0.12
A22U A59G	0.07
A22U A64G	0.3
A22U A65U	0.18
A22U A67C	0.05
A22U A78G	1.54
A22U A92G	0.05
A22U A92U	0.63
A22U A94U	0.17
A22U A117U	1.36
A22U A121C	1.27
A22U A124G	0.47

Variant	self-cleavage
A22U A129U	1.47
A22U A136G	1.13
A22U A136U	1.04
A22U A140G	0.71
A22U A142G	1.31
A22U A142U	1.48
A22U C38A	0.64
A22U C68U	0.13
A22U C99U	0.51
A22U C118U	1.47
A22U G49A	1.08
A22U G60U	0.05
A22U G83A	0.82
A22U G93A	0.07
A22U G105A	1.29
A22U G106A	1.55
A22U G144A	1.08
A22U U26C	1.18
A22U U29C	1.24
A22U U39A	1.17
A22U U45A	0.83
A22U U46C	1.34
A22U U52C	1.73
A22U U62C	0.13

Variant	self-cleavage
A22U U73A	1.52
A22U U85C	0.26
A22U U102C	1.06
A22U U108A	1.08
A22U U109A	1.34
A22U U109C	0.91
A22U U112A	1.19
A22U U115A	0.63
A22U U119A	1.46
A22U U119C	1.52
A22U U130C	1.35
A22U U132C	1.6
A22U U134A	1.15
U23A	1.3
U23A A24G	0.85
U23A A31G	0.93
U23A A31U	0.37
U23A A43G	1.27
U23A A59G	0.24
U23A A64C	0.48
U23A A65G	0.1
U23A A67G	0.71
U23A A78G	1.14
U23A A79G	1.31

Variant	self-cleavage
U23A A94G	0.47
U23A A107U	1.1
U23A A117C	1.6
U23A A121G	1.41
U23A A138G	0.76
U23A A140G	1.41
U23A C98G	0.14
U23A C118U	1.22
U23A C120A	0.82
U23A C146U	1.27
U23A G54A	0.96
U23A G105U	1.36
U23A U39C	0.65
U23A U45C	0.71
U23A U46C	1.57
U23A U46G	0.35
U23A U47A	1.91
U23A U52C	0.75
U23A U62A	0.05
U23A U62C	0
U23A U73C	1.24
U23A U81C	0.86
U23A U85A	0.08
U23A U87A	0.09

Variant	self-cleavage
U23A U96A	0.08
U23A U96C	0.19
U23A U100A	0.86
U23A U100C	1.26
U23A U102A	1.18
U23A U102C	2.11
U23A U108C	1.45
U23A U108G	1.59
U23A U109A	1.33
U23A U109C	1.06
U23A U112C	1.18
U23A U115C	1.18
U23A U130A	1.52
U23A U130C	1.44
U23A U132C	0.33
U23A U134G	0.89
U23A U143A	2.26
U23C	1.3
U23C A24G	1.48
U23C A30G	0.89
U23C A30U	1.15
U23C A31G	0.85
U23C A42C	0
U23C A42G	1.18

Variant	self-cleavage
U23C A43G	1.11
U23C A43U	1.06
U23C A50G	1.34
U23C A50U	1
U23C A64C	0.29
U23C A65G	0.1
U23C A65U	0.09
U23C A69G	1.2
U23C A77G	1.24
U23C A77U	1.36
U23C A78G	1.25
U23C A92G	0.09
U23C A94G	0.37
U23C A117C	1.51
U23C A121C	1.9
U23C A124C	1.34
U23C A124U	1.22
U23C A129G	0
U23C A136U	1.19
U23C A138U	1.84
U23C A140C	1.35
U23C A140G	1.28
U23C A140U	1.29
U23C A142G	1.61

Variant	self-cleavage
U23C C51A	0.98
U23C C51U	0.97
U23C C56A	0.07
U23C C66U	0.05
U23C C95U	0.22
U23C C99U	0.91
U23C C101U	1.31
U23C C113U	0.88
U23C C120U	0.55
U23C C146A	0
U23C G53A	0.87
U23C G54A	0.51
U23C G55C	0.06
U23C G58A	0.1
U23C G74A	0.99
U23C G75C	1.23
U23C G106U	1.04
U23C G114C	2.07
U23C G126A	1.18
U23C G127C	1.12
U23C U26G	1.45
U23C U29C	1.06
U23C U39A	1.2
U23C U39C	0.87

Variant	self-cleavage
U23C U45A	1.25
U23C U45C	1.7
U23C U45G	1.02
U23C U47A	1.9
U23C U52A	1.39
U23C U62A	0.06
U23C U73A	1.28
U23C U73C	1.81
U23C U81A	1.85
U23C U81C	1.41
U23C U87A	0.06
U23C U91A	0.8
U23C U96A	0.12
U23C U96C	0.21
U23C U102A	1.28
U23C U102C	1.33
U23C U109A	1.49
U23C U109C	1.84
U23C U112C	1.57
U23C U115A	1.23
U23C U115C	1.16
U23C U132A	1.86
